Test results: article doi:10.1101/2021.11.25.470006 (bioRxiv, 2021)

T1: Smc6 (Walker B mutant E1048Q) (S. cerevisiae, UniProt Q12749 1-1114, E1048Q, BS3-crosslinked within the holo-complex)
T1 sequence: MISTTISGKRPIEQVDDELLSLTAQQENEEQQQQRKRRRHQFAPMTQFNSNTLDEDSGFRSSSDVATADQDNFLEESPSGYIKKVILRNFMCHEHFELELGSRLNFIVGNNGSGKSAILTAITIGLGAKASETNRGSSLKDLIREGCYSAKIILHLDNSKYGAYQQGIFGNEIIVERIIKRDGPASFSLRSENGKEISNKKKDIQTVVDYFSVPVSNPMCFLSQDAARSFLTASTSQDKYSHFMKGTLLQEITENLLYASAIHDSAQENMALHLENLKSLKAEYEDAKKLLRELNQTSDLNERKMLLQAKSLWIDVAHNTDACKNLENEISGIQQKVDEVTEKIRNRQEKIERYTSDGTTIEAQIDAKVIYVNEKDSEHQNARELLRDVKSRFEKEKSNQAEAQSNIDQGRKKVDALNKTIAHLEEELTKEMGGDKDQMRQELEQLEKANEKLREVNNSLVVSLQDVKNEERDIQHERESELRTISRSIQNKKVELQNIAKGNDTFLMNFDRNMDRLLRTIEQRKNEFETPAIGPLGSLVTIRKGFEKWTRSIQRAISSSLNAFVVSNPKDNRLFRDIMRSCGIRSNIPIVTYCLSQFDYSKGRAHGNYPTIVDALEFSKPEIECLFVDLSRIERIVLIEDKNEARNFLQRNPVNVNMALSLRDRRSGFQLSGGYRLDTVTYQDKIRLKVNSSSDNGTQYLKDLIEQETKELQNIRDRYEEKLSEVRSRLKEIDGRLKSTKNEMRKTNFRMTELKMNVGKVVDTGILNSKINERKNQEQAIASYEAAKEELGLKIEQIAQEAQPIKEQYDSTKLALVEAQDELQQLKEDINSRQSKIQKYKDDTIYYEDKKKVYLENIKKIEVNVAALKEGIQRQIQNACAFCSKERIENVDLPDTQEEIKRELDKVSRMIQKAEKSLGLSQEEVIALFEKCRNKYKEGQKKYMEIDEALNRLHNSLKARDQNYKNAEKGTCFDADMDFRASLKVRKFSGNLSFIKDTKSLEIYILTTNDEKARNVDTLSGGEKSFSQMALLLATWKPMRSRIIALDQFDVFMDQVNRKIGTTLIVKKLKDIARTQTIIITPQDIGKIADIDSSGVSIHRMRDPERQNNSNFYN

B1: Nse4 (HALO-tagged) (natural protein, S. cerevisiae)
chain: MSSTVISRKRRNSTVTEPDSSGETRKQKKSRSDEKSSSSKDGDPQLEFKVLQGYRDLESEMHKGRAQVTRTGDIGVAMDNLNAVDSLFNKVIGIKNNGLFAHDARAMVSISELAQISVRNLKFDDSRSMVNLENIVNSLKRYMLKEHFKLNNIAENRNDLTLAADEQSAADQQEESDGDIDRTPDDNHTDKATSSFKATSMRHSYLQQFSHYNEFSQFNWFRIGALYNTISKNAPITDHLMGPLSIEKKPRVLTQRRRNNDQVGEKITAEKITQHSLNSTQQETTPEQVKKCFKKLSKKLGPEGSINLFKFIIDPNSFSRSIENLFYTSFLIKEGKLLMEHDEEGLPTIKIKQSISHTDSRSKEIERQRRRAAHQNHIIFQMDMPTWRKLIKKYNITSPFLD
modifications: BS3-crosslinked within the holo-complex
B2: Smc5 (Walker B mutant E1015Q) (natural protein, S. cerevisiae)
chain: MTSLIDLGRYVERTHHGEDTEPRSKRVKIAKPDLSSFQPGSIIKIRLQDFVTYTLTEFNLSPSLNMIIGPNGSGKSTFVCAVCLGLAGKPEYIGRSKKVEDFIKNGQDVSKIEITLKNSPNVTDIEYIDARDETIKITRIITRSKRRSDYLINDYQVSESVVKTLVAQLNIQLDNLCQFLSQERVEEFARLKSVKLLVETIRSIDASLLDVLDELRELQGNEQSLQKDLDFKKAKIVHLRQESDKLRKSVESLRDFQNKKGEIELHSQLLPYVKVKDHKEKLNIYKEEYERAKANLRAILKDKKPFANTKKTLENQVEELTEKCSLKTDEFLKAKEKINEIFEKLNTIRDEVIKKKNQNEYYRGRTKKLQATIISTKEDFLRSQEILAQTHLPEKSVFEDIDIKRKEIINKEGEIRDLISEIDAKANAINHEMRSIQRQAESKTKSLTTTDKIGILNQDQDLKEVRDAVLMVREHPEMKDKILEPPIMTVSAINAQFAAYLAQCVDYNTSKALTVVDSDSYKLFANPILDKFKVNLRELSSADTTPPVPAETVRDLGFEGYLSDFITGDKRVMKMLCQTSKIHTIPVSRRELTPAQIKKLITPRPNGKILFKRIIHGNRLVDIKQSAYGSKQVFPTDVSIKQTNFYQGSIMSNEQKIRIENEIINLKNEYNDRKSTLDALSNQKSGYRHELSELASKNDDINREAHQLNEIRKKYTMRKSTIETLREKLDQLKREARKDVSQKIKDIDDQIQQLLLKQRHLLSKMASSMKSLKNCQKELISTQILQFEAQNMDVSMNDVIGFFNEREADLKSQYEDKKKFVKEMRDTPEFQSWMREIRSYDQDTKEKLNKVAEKYEEEGNFNLSFVQDVLDKLESEIAMVNHDESAVTILDQVTAELRELEHTVPQQSKDLETIKAKLKEDHAVLEPKLDDIVSKISARFARLFNNVGSAGAVRLEKPKDYAEWKIEIMVKFRDNAPLKKLDSHTQSGGERAVSTVLYMIALQEFTSAPFRVVDQINQGMDSRNERIVHKAMVENACAENTSQYFLITPKLLTGLHYHEKMRIHCVMAGSWIPNPSEDPKMIHFGETSNYSFD
modifications: BS3-crosslinked within the holo-complex

Key:
Experiment in all cases: cryo-EM structure
[1] = target: T1, Smc6 (Walker B mutant E1048Q)
[2] = target: B2
Nse4 (HALO-tagged) = target: B1

binding result [1] | binding result [2] | binding result (Nse4 (HALO-tagged)) | Binder
binds | binds | – | Nse2 (Mms21) (natural protein, S. cerevisiae, BS3-crosslinked within the holo-complex) ALNDNPIPKSVPLHPKSGKYFHNLHARDLSNIYQQCYKQIDETINQLVDSTSPSTIGIEEQVADITSTYKLLSTYESESNSFDEHIKDLKKNFKQSSDACPQIDLSTWDKYRTGELTAPKLSELYLNMPTPEPATMVNNTDTLKILKVLPYIWNDPTCVIPDLQNPADEDDLQIEGGKIELTCPITCKPYEAPLISRKCNHVFDRDGIQNYLQGYTTRDCPQAACSQVVSMRDFVRDPIMELRCKIAKMKESQEQDKRSSQAIDVL
binds | binds | – | B1
– | binds | binds | Nse1 (natural protein, S. cerevisiae, BS3-crosslinked within the holo-complex) MEVHEEQVSAPVTGDATAKYLLQYILSARGICHENALILALMRLETDASTLNTEWSIQQWVDKLNDYINAINVKLNLLGYKIIRINHGIGRNAVTLKAKQNFESFEDNTAIRAHNNDYAVLQSIVLPESNRFFVYVNLASTEETKLATRFNQNEIEFMKWAIEQFMISGETIVEGPALETSIIVKEVNRILVAATGDSNLAKWRKFSTFTVGSTNLFQFQELTATDIEDLLLRLCELKWFYRTQEGKFGIDLRCIAELEEYLTSMYNLNTCQNCHKLAIQGVRCGNESCREENEETGENSLSQIWHVDCFKHYITHVSKNCDRCGSSLITEGVYVI
binds | – | – | B2
